Data: US20080220446A1, “Method for Detecting and/or Removing Protein and/or Peptide Comprising a Cross-Beta Structure From an Aqueous Solution Comprising a Protein” (priority 2005, published 2008)

Target: endostatin (EntreMed, Inc.) (UniProt P39060)
Experiment: SPR (Biacore), Fn F4-5-His6 immobilized, endostatin at 0-800 nM, maximum RU against concentration

Chain of endostatin (EntreMed, Inc.) (P39060 1572-1754): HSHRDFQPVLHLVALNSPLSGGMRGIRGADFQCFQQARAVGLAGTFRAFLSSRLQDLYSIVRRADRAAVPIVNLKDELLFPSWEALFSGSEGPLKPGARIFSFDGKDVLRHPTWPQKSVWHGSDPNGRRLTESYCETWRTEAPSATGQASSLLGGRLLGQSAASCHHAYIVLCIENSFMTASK

concentration of ligand that results in half maximum binding: 800 nM
Substance: Fn F4-5-His6 (fibronectin type I domains 4-5, expressed in S. cerevisiae) (from UniProt P02751 182-276)
